Measurements as given in patent CN114031685A.

Experiments:
[1] = molecular target: SARS-CoV-2 Delta株 S-ECD蛋白 (SARS-CoV-2 Delta株 (B.1.617.2))
[2] = molecular target: SARS-CoV-2 Beta株 S-ECD蛋白 (SARS-CoV-2 Beta株 (B.1.351))
[3] = molecular target: SARS-CoV-2 Alpha株 S-ECD蛋白 (SARS-CoV-2 Alpha株 (B.1.1.7))
[4] = molecular target: SARS-CoV-2 Omicron株 S-ECD蛋白 (SARS-CoV-2 Omicron株 (B.1.1.529))
[5] = molecular target: SARS-CoV-2 Gamma株 S-ECD蛋白 (SARS-CoV-2 Gamma株 (P.1))

B1: 抗SARS-CoV-2全人源单克隆抗体ZW2G10 (antibody, V domains shown)
VH: EVQLVESGGGLVQPGRSLRLSCAASGFTFDDYAMHWVRQAPGKGLEWVSGITWNSGTIGYADSVKGRFIISRDNAKNSLHLQMNSLRVEDTALYYCAKDNSDYSGYYWELENYGMDVWGQGTTVTVSS
VL: QSVLTQPPSVSGAPGQRVTISCTGSSSNIGAGYDVHWYQQLPGTAPKLLIYDNNNRPSGVPDRFSGSKSGTSASLAITGLQAEDEADYYCQSFDSSLSGVVFGGGTRLTVLR
Kd [1]: 5.45 nM | Kd [2]: 0.518 nM | Kd [3]: 0.166 nM | Kd [4]: 0.765 nM | Kd [5]: 0.615 nM
